Measured values taken from patent US20200223889A1 (Novo Nordisk, published 2020).
Positions of bridges follow the written chain, without caps; N, C: chain ends. Non-standard residues stand in square brackets, D forms with d. Phe(3,4-(OMe)2) = COc1ccc(C[C@H](N)C(=O)O)cc1OC; Phe(3,4-Cl2) = N[C@@H](Cc1ccc(Cl)c(Cl)c1)C(=O)O; Phe(4-CN) = N#Cc1ccc(C[C@H](N)C(=O)O)cc1; 1Nal = N[C@@H](Cc1cccc2ccccc12)C(=O)O; Hyp = O=C(O)[C@@H]1C[C@@H](O)CN1; Thz = O=C(O)[C@@H]1CSCN1; Aib = CC(C)(N)C(=O)O; Sar = CNCC(=O)O

B1: Chem. 61 (peptide)
peptide: cyclo(C[Aib]H[dF]HWCAKKKW)
modifications: disulfide 1-7
SMILES: C[C@@H]1NC(=O)[C@@H]2CSSC[C@H](NC(=O)[C@H](Cc3c[nH]c4ccccc34)NC(=O)[C@H](CCCCN)NC(=O)[C@H](CCCCN)NC(=O)[C@H](CCCCN)NC1=O)C(=O)NC(C)(C)C(=O)N[C@@H](Cc1c[nH]cn1)C(=O)N[C@H](Cc1ccccc1)C(=O)N[C@@H](Cc1c[nH]cn1)C(=O)N[C@@H](Cc1c[nH]c3ccccc13)C(=O)N2
notes: also called c[c[Cys-Aib-His-D-Phe-His-Trp-Cys]-Ala-Lys-Lys-Lys-Trp]
B2: Chem. 110 (peptide)
peptide: cyclo(C[Thz]H[dF]HWCAKKAW)
modifications: disulfide 1-7
SMILES: C[C@@H]1NC(=O)[C@H](CCCCN)NC(=O)[C@H](CCCCN)NC(=O)[C@H](C)NC(=O)[C@@H]2CSSC[C@H](NC(=O)[C@H](Cc3c[nH]c4ccccc34)NC1=O)C(=O)N1CSC[C@H]1C(=O)N[C@@H](Cc1c[nH]cn1)C(=O)N[C@H](Cc1ccccc1)C(=O)N[C@@H](Cc1c[nH]cn1)C(=O)N[C@@H](Cc1c[nH]c3ccccc13)C(=O)N2
notes: also called c[c[Cys-THAZ-His-D-Phe-His-Trp-Cys]-Ala-Lys-Lys-Ala-Trp]
B3: Chem. 109 (peptide)
peptide: cyclo(C[Thz]H[dF]HWCAAKAW)
modifications: disulfide 1-7
SMILES: C[C@@H]1NC(=O)[C@H](C)NC(=O)[C@@H]2CSSC[C@H](NC(=O)[C@H](Cc3c[nH]c4ccccc34)NC(=O)[C@H](C)NC(=O)[C@H](CCCCN)NC1=O)C(=O)N1CSC[C@H]1C(=O)N[C@@H](Cc1c[nH]cn1)C(=O)N[C@H](Cc1ccccc1)C(=O)N[C@@H](Cc1c[nH]cn1)C(=O)N[C@@H](Cc1c[nH]c3ccccc13)C(=O)N2
notes: also called c[c[Cys-THAZ-His-D-Phe-His-Trp-Cys]-Ala-Ala-Lys-Ala-Trp]
B4: Chem. 97 (peptide)
peptide: cyclo(C[Hyp]H[dF]HWCAKKKR)
modifications: disulfide 1-7
SMILES: C[C@@H]1NC(=O)[C@@H]2CSSC[C@H](NC(=O)[C@H](CCCNC(=N)N)NC(=O)[C@H](CCCCN)NC(=O)[C@H](CCCCN)NC(=O)[C@H](CCCCN)NC1=O)C(=O)N1C[C@H](O)C[C@H]1C(=O)N[C@@H](Cc1c[nH]cn1)C(=O)N[C@H](Cc1ccccc1)C(=O)N[C@@H](Cc1c[nH]cn1)C(=O)N[C@@H](Cc1c[nH]c3ccccc13)C(=O)N2
notes: also called c[c[Cys-Hyp-His-D-Phe-His-Trp-Cys]-Ala-Lys-Lys-Lys-Arg]
B5: Chem. 100 (peptide)
peptide: cyclo(C[Thz]H[dF]HWCAKKKR)
modifications: disulfide 1-7
SMILES: C[C@@H]1NC(=O)[C@@H]2CSSC[C@H](NC(=O)[C@H](CCCNC(=N)N)NC(=O)[C@H](CCCCN)NC(=O)[C@H](CCCCN)NC(=O)[C@H](CCCCN)NC1=O)C(=O)N1CSC[C@H]1C(=O)N[C@@H](Cc1c[nH]cn1)C(=O)N[C@H](Cc1ccccc1)C(=O)N[C@@H](Cc1c[nH]cn1)C(=O)N[C@@H](Cc1c[nH]c3ccccc13)C(=O)N2
notes: also called c[c[Cys-THAZ-His-D-Phe-His-Trp-Cys]-Ala-Lys-Lys-Lys-Arg]
B6: Chem. 74 (peptide)
peptide: cyclo(C[Sar]H[dF]HWCAKKKR)
modifications: disulfide 1-7
SMILES: C[C@@H]1NC(=O)[C@@H]2CSSC[C@H](NC(=O)[C@H](CCCNC(=N)N)NC(=O)[C@H](CCCCN)NC(=O)[C@H](CCCCN)NC(=O)[C@H](CCCCN)NC1=O)C(=O)N(C)CC(=O)N[C@@H](Cc1c[nH]cn1)C(=O)N[C@H](Cc1ccccc1)C(=O)N[C@@H](Cc1c[nH]cn1)C(=O)N[C@@H](Cc1c[nH]c3ccccc13)C(=O)N2
notes: also called c[c[Cys-Sar-His-D-Phe-His-Trp-Cys]-Ala-Lys-Lys-Lys-Arg]
B7: Chem. 67 (peptide)
peptide: cyclo(CAH[dF]R[Phe(3,4-(OMe)2)]CAKKKW)
modifications: disulfide 1-7
SMILES: COc1ccc(C[C@@H]2NC(=O)[C@H](CCCNC(=N)N)NC(=O)[C@@H](Cc3ccccc3)NC(=O)[C@H](Cc3c[nH]cn3)NC(=O)[C@H](C)NC(=O)[C@@H]3CSSC[C@H](NC2=O)C(=O)N[C@@H](C)C(=O)N[C@@H](CCCCN)C(=O)N[C@@H](CCCCN)C(=O)N[C@@H](CCCCN)C(=O)N[C@@H](Cc2c[nH]c4ccccc24)C(=O)N3)cc1OC
notes: also called c[c[Cys-Ala-His-D-Phe-Arg-3,4-DiMeo-Phe-Cys]-Ala-Lys-Lys-Lys-Trp]
B8: Chem. 66 (peptide)
peptide: cyclo(CAH[dF]R[Phe(3,4-Cl2)]CAKKKW)
modifications: disulfide 1-7
SMILES: C[C@@H]1NC(=O)[C@@H]2CSSC[C@H](NC(=O)[C@H](Cc3ccc(Cl)c(Cl)c3)NC(=O)[C@H](CCCNC(=N)N)NC(=O)[C@@H](Cc3ccccc3)NC(=O)[C@H](Cc3c[nH]cn3)NC1=O)C(=O)N[C@@H](C)C(=O)N[C@@H](CCCCN)C(=O)N[C@@H](CCCCN)C(=O)N[C@@H](CCCCN)C(=O)N[C@@H](Cc1c[nH]c3ccccc13)C(=O)N2
notes: also called c[c[Cys-Ala-His-D-Phe-Arg-3,4-DiCl-Phe-Cys]-Ala-Lys-Lys-Lys-Trp]
B9: Chem. 64 (peptide)
peptide: cyclo(CAH[dF]R[1Nal]CAKKKW)
modifications: disulfide 1-7
SMILES: C[C@@H]1NC(=O)[C@@H]2CSSC[C@H](NC(=O)[C@H](Cc3cccc4ccccc34)NC(=O)[C@H](CCCNC(=N)N)NC(=O)[C@@H](Cc3ccccc3)NC(=O)[C@H](Cc3c[nH]cn3)NC1=O)C(=O)N[C@@H](C)C(=O)N[C@@H](CCCCN)C(=O)N[C@@H](CCCCN)C(=O)N[C@@H](CCCCN)C(=O)N[C@@H](Cc1c[nH]c3ccccc13)C(=O)N2
notes: also called c[c[Cys-Ala-His-D-Phe-Arg-1-Nal-Cys]-Ala-Lys-Lys-Lys-Trp]
B10: Chem. 7 (peptide)
peptide: cyclo(AAH[dF]RWAAH[dF]RW)
SMILES: C[C@@H]1NC(=O)[C@H](C)NC(=O)[C@H](Cc2c[nH]c3ccccc23)NC(=O)[C@H](CCCNC(=N)N)NC(=O)[C@@H](Cc2ccccc2)NC(=O)[C@H](Cc2c[nH]cn2)NC(=O)[C@H](C)NC(=O)[C@H](C)NC(=O)[C@H](Cc2c[nH]c3ccccc23)NC(=O)[C@H](CCCNC(=N)N)NC(=O)[C@@H](Cc2ccccc2)NC(=O)[C@H](Cc2c[nH]cn2)NC1=O
notes: also called c[Ala-Ala-His-D-Phe-Arg-Trp-Ala-Ala-His-D-Phe-Arg-Trp]
B11: Chem. 63 (peptide)
peptide: XAHFRWCAHXRW
modifications: Pen 1; D-Phe 4, 10; disulphide Pen1-Cys7; head-to-tail amide Pen1-Trp12
notes: also called c[c[Pen-Ala-His-D-Phe-Arg-Trp-Cys]-Ala-His-D-Phe-Arg-Trp]
B12: Chem. 68 (peptide)
peptide: cyclo(CH[dF]RWRCH[dF]RWR)
modifications: disulfide 1-7
SMILES: N=C(N)NCCC[C@@H]1NC(=O)[C@H](Cc2c[nH]c3ccccc23)NC(=O)[C@H](CCCNC(=N)N)NC(=O)[C@@H](Cc2ccccc2)NC(=O)[C@H](Cc2c[nH]cn2)NC(=O)[C@@H]2CSSC[C@H](NC1=O)C(=O)N[C@@H](Cc1c[nH]cn1)C(=O)N[C@H](Cc1ccccc1)C(=O)N[C@@H](CCCNC(=N)N)C(=O)N[C@@H](Cc1c[nH]c3ccccc13)C(=O)N[C@@H](CCCNC(=N)N)C(=O)N2
notes: also called c[c[Cys-His-D-Phe-Arg-Trp-Arg-Cys]-His-D-Phe-Arg-Trp-Arg]
B13: Chem. 69 (peptide)
peptide: cyclo(CAH[dF]RWRCAH[dF]RWR)
modifications: disulfide 1-8
SMILES: C[C@@H]1NC(=O)[C@@H]2CSSC[C@H](NC(=O)[C@H](CCCNC(=N)N)NC(=O)[C@H](Cc3c[nH]c4ccccc34)NC(=O)[C@H](CCCNC(=N)N)NC(=O)[C@@H](Cc3ccccc3)NC(=O)[C@H](Cc3c[nH]cn3)NC1=O)C(=O)N[C@@H](C)C(=O)N[C@@H](Cc1c[nH]cn1)C(=O)N[C@H](Cc1ccccc1)C(=O)N[C@@H](CCCNC(=N)N)C(=O)N[C@@H](Cc1c[nH]c3ccccc13)C(=O)N[C@@H](CCCNC(=N)N)C(=O)N2
notes: also called c[c[Cys-Ala-His-D-Phe-Arg-Trp-Arg-Cys]-Ala-His-D-Phe-Arg-Trp-Arg]
B14: Chem. 65 (peptide)
peptide: cyclo(CAH[dF]R[Phe(4-CN)]CAKKKW)
modifications: disulfide 1-7
SMILES: C[C@@H]1NC(=O)[C@@H]2CSSC[C@H](NC(=O)[C@H](Cc3ccc(C#N)cc3)NC(=O)[C@H](CCCNC(=N)N)NC(=O)[C@@H](Cc3ccccc3)NC(=O)[C@H](Cc3c[nH]cn3)NC1=O)C(=O)N[C@@H](C)C(=O)N[C@@H](CCCCN)C(=O)N[C@@H](CCCCN)C(=O)N[C@@H](CCCCN)C(=O)N[C@@H](Cc1c[nH]c3ccccc13)C(=O)N2
notes: also called c[c[Cys-Ala-His-D-Phe-Arg-4-CN-Phe-Cys]-Ala-Lys-Lys-Lys-Trp]

Target: T1, human melanocortin 4 receptor (human, UniProt P32245 1-332)
T1 sequence (P32245 whole entry): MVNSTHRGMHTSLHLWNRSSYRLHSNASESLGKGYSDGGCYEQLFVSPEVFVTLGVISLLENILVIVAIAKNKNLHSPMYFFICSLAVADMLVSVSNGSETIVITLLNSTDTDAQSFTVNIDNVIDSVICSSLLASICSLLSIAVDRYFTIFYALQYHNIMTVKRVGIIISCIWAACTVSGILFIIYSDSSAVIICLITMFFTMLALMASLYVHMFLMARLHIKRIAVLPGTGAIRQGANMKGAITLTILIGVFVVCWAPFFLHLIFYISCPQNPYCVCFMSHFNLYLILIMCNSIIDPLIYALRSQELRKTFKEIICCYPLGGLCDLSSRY
Experiment: cell-based or functional assay

| Binder | MC4R cAMP EC50 [nM] |
| --- | --- |
| B1 | 0.31 |
| B2 | 0.05 |
| B3 | 0.15 |
| B4 | 0.19 |
| B5 | 0.02 |
| B6 | 0.29 |
| B7 | 2.99 |
| B8 | 0.01 |
| B9 | 0.03 |
| B10 | 0.06 |
| B11 | 0.02 |
| B12 | 4.35 |
| B13 | 1.52 |
| B14 | 0.42 |

Target: human melanocortin 1 receptor (human, UniProt Q01726 1-317)
Sequence (Q01726 whole entry): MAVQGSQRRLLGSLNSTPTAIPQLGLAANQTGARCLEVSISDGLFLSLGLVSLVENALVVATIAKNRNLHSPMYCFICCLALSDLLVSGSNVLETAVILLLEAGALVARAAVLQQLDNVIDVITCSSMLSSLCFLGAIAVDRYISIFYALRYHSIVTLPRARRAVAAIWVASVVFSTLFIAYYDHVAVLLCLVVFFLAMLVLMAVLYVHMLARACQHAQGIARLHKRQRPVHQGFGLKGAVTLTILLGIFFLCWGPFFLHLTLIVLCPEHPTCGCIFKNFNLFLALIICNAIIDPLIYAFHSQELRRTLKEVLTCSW
Experiment: cell-based or functional assay

| Binder | MC1R cAMP EC50 [nM] |
| --- | --- |
| B1 | > 1 |
| B2 | 63.3 |
| B3 | > 7 |
| B4 | 23.1 |
| B5 | 18.5 |
| B6 | > 5.5 |
| B7 | > 55 |
| B8 | 0.22 |
| B9 | 4.23 |
| B10 | 4.56 |
| B11 | 0.84 |
| B12 | 4.87 |
| B13 | 6.9 |
| B14 | 10.8 |

Target: T1, human melanocortin 4 receptor
Experiment: competition with 125-NDP-α-MSH, BHK human MC4R membranes
Experimental: In order to assess the binding affinity of the selected compounds for the human MC4R competitive binding assays was performed with radiolabeled NDP-alpha MSH (¹²⁵NDP-α-MSH).
The assay was performed in 96-well filterplates (Unifilter) using BHK cells stably expressing the human MC4 receptor.
The BHK cell membranes were prepared from frozen or fresh cells that were homogenized in 20 mM HEPES pH 7.1, 5 mM MgCl₂, 1 mg/ml bacitracin (buffer 1) and centrifuged at 15000 rpm at 4° C., 10 min in a Sorvall RC 5B plus, SS-34 rotor. The supernatant was discarded, and the pellets were re-suspended in buffer 1, homogenized and centrifuged two more times. The final pellets were re-suspended in buffer 1 and the protein concentration was measured and adjusted with buffer 1 to 5 mg/ml and the membrane preparation was kept at −80° C. until assay. The assay was run on a dilution of this cell membrane suspension without any further preparation. The suspension was diluted to give maximally 10% specific binding, i.e. to approx. 50-100 fold dilution, optimized after each membrane preparation. The assay was performed in a total volume of 200 μl: 50 μl of cell suspension, 50 μl of ¹²⁵NDP-α-MSH (apx. […] in final concentration), 50 μl of test compound and 50 μl binding buffer were mixed and incubated for 2 h at 25° C. (binding buffer: 25 mM HEPES, pH 7.0, 1 mM CaCl₂), 1 mM MgSO₄, 1 mM EGTA, 0.005% Tween™ 20 and 0.1% HSA or, alternatively, 0.1% ovalbumin (Sigma; catalogue No. A-5503)). Test compounds were dissolved in 100% DMSO and diluted in binding buffer in a dose range from 1 μM to 0.001 nM. Radiolabelled ligand and membranes were diluted in binding buffer. The incubation was stopped by dilution with 8×100 μl ice-cold 0.9% NaCl. The radioactivity retained on the filters was counted using a Packard Topcounter. The data were analysed by non-linear regression analysis of binding curves, using the Windows™ program GraphPad™ Prism (GraphPad Software, USA).

| Binder | Ki [nM] |
| --- | --- |
| B1 | 0.22 |
| B2 | 0.09 |
| B3 | 0.3 |
| B4 | 0.05 |
| B5 | 0.04 |
| B6 | 0.08 |
| B7 | 0.95 |
| B8 | 0.03 |
| B9 | 0.09 |
| B10 | 0.47 |
| B11 | 0.08 |
| B12 | 10.4 |
| B13 | 4.65 |
| B14 | 0.47 |
